{"source": "patent US20250101117A1", "about": "(Genentech, published 2025)", "molecular_target": "T1, oncostatin M receptor-beta (OSMRβ) (human, UniProt Q99650 28-979)", "T1 sequence (looked up)": "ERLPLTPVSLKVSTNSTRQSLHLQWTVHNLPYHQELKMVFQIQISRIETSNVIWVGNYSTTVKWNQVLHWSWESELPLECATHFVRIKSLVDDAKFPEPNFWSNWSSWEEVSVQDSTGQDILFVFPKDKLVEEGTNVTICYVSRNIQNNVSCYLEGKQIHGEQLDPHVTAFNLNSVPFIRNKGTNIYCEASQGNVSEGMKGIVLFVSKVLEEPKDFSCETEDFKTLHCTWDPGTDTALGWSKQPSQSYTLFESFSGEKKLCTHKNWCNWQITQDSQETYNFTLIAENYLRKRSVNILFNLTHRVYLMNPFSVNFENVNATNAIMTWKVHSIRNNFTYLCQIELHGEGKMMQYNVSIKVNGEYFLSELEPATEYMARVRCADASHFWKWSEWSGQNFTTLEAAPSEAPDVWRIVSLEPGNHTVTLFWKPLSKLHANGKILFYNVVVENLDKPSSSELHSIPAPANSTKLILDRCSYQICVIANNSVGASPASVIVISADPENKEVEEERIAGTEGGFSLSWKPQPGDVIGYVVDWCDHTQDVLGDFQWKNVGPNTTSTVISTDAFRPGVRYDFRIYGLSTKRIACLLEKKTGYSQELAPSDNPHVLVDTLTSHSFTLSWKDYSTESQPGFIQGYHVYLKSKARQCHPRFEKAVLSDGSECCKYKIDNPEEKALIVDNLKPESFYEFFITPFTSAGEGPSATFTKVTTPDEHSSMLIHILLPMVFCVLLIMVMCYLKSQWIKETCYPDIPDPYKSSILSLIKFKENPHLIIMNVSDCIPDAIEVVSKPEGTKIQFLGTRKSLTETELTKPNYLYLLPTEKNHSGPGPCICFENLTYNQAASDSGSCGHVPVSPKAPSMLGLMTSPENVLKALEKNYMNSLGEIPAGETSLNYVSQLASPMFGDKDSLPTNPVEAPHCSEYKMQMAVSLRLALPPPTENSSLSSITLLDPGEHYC", "test": "cell-based or functional assay"}
{"binder": "Vixarelimab (antibody, human IgG4 S228P, lambda, N297Q, V domains shown) VH: QVQLVQSGAEVKKPGASVKVSCKASGYTFTSYEINWVRQATGQGLEWMGWMNPNSGYTGYAQKFQGRVTMTRDTSISTAYMEMSSLRSEDTAVYYCARDIVAANTDYYFYYGMDVWGQGTTVTVSS VL: QSVLTQPPSASGTPGQRVTISCSGSNSNIGSNTVNWYHQLPGTAPKLLIYNINKRPSGVPDRFSGSKSGSSASLAISGLQSEDEADYYCSTWDDSLDGVVFGGGTKLTVLG", "values": [{"measurement": "Mean of IC50, inhibition of OSM-induced pSTAT3; IBD-derived intestinal fibroblasts, [OSM] 1 ng/mL (standard deviation 0.05)", "value": 0.14, "unit": "nM"}, {"measurement": "Mean of IC50, inhibition of OSM-induced pSTAT3; IBD-derived intestinal fibroblasts, [OSM] 10 ng/mL (standard deviation 0.36)", "value": 1.15, "unit": "nM"}, {"measurement": "Mean of IC50, inhibition of OSM-induced pSTAT3; normal keratinocytes, [OSM] 10 ng/mL (standard deviation 0.18)", "value": 0.36, "unit": "nM"}]}
